Laboratory results taken from the DeepSol protein solubility set.

Assay: soluble on expression in E. coli; label from the status in PepcDB or PDB records
With “MLKSEDADYEKAMKDKVGTGPQEYLKQLSDSLVKNQSAASVEVVSGATHSSDAFINYANQLIQAAQKADTTTISINNLAKMEDGTYKLEEQNYAHGYRVVFSMDVKDGKITKSDYNYVDKDGKLKSDDADYEKNMKAKSGTGPKEYIPALNKSLVEKQDVAAVDTVSGATNSSNQFKIYAAQLQNAAQNGNTDTIKVYNLVEAELEHHHHHH” the “soluble on expression in E. coli” value was “soluble”.
With “VRILVTGGVRSGKSTHAEALLGDAADVVYVAPGRPAAGSDPDWDARVALHRARRPPTWLTVETADVATALSEARSPVLVDCLGTWLTAIMDGEALWSAATADVYAVLEARLDGLCAALTGLPTAIVVTNEVGLGVVPSHSSGVLFRDLLGTINRRVAAVCDEVHLVIAGRVLKL” the “soluble on expression in E. coli” value was “soluble”.
With “MGSDKIHHHHHHMASSENTKNGNGGTLGFEAELFKAADKLRGNMEPSDYKHVALGLIFLKYISDAFEARHKALLAEDVRAAEDKDEYLADNVFWVPKEARWSHLQANAKLPAIGTLIDDAMRAIEKDNESLKGVLPKDYARPALNKVMLGELIDLISGIALNEEGDRSKDILGRVYEYFLGQFAGAEGKRGGEFYTPRSVVRVLVEMLEPYSGRVYDPCCGSGGMFVQSEKFVHEHGGRIGDIAIYGQESNYTTWRLAKMNLAVRGIDSDIRWNNEGSFHKDELRDLKADYVLANPPFNISDWGGDRLREDVRWKFGAPPVGNANYAWLQHIFHHLAPNGTAGVVLANGSMSSNQSGEGEIRRAMIEADAVDCMVALPGQLFYSTQIPACLWFLARNKNPGGGLRDRRGQVLFIDARKLGVLIDRTRRELNDDDIKRIADSYHAWRGEKEAGEYADVLGFCKSASLDEIRKHGHVLTPGRYVGAEAQADDGEPFDEVMRRLSAQWRAQQLEGQRVDDAIERNLRELGYGQ” the “soluble on expression in E. coli” value was “not soluble”.
For “GPGSMSEHATTDLEGRYAQLATIQSEIDAAPLLSPTVEKLGDGCNLMTEFSDNPPMLVKVVSLWRNEETKYKGIRYARRDGNCFYRSVVFGMHESLLNNKERAGAHLERITDLSRQVVADYGNFAEDFCHPAVEMAKKIESGECSTVEQLYELSTNGEAEYALYFYRYAVSHHIRTHEDDFLPFVVGMGHETVSEFCSVEVDAVASEADNVQVVAFAQCFDVRVIVEYVDGREGDCTTRHTFQQKDSHDANEYTTIEVTLLYRPGHYDLLYK”, the “soluble on expression in E. coli” value was “soluble”.
In the case of “MGSDKIHHHHHHMWKHVKQVDPEIYEVLVNELKRQEYGLELIASENFASLAVIETMGSMLTNKYAEGYPKKRYYGGCEWVDRAEERAIERAKRLFGAKFANVQPHSGSQANMAVYLALAQPGDTIMGMSLSHGGHLTHGAPVNFSGKIFKVVPYGVNLETETIDYDEVRRLALEHKPKIIVAGGSAYARIIDFKRFREIADEVGAYLMVDMAHFAGLVAAGIHPNPLEYAHVVTSTTHKTLRGPRGGLILTNDPEIAKAVDKTIFPGIQGGPLMHVIAAKAVCFKEAMTEEFKEYQKQVVKNAKKMAEEFQKRGYRIVSGGTDTHLFLVDLTPKDITGKAAEKALESCGITVNKNTIPNEKRSPFVASGIRIGTPAVTTRGMKEEEMEEIAEMIDLVLSNVIDENGTVKPEVREEVSKKVRELCERFPLYRDKIEGVEI”, the “soluble on expression in E. coli” value is reported as “not soluble”.
In the case of “LSEKEFFMSRAIKLAKLGWGKTNPNPLVGAVVVKDGKIIAEGYHKQLGGPHAEVEAFNNAKEDVAGGTLYVNLEPCSHYGRTPPCAQKIIDVGIKKVVAAIKDPNPKVSGRGFEMLKNAGIEVEVGVLEEEAIRLNEIFITYIVKKKPFVILKTAMTLDGKIATASGDSKWVTGEKARNHVHVIRDRVAAVMVGINTVLKDNPYLTTRLPDKEGSDPVRIVVDSKGSIPLDSNVINSNSKAGVILATTSRIDKEKEKMLIDKGVKIIKADGSDGRVDLKLLMDELYKLEIDSVLLEGGGTLNSSAISAGIVDKVMCFISPKIVGGENAPTSVEGIGALRMCEAIGVKNISVVKFGEDILLEGYIE”, the “soluble on expression in E. coli” value is reported as “soluble”.
In the case of “MTQTNNRLFDEIGRLMNDAAGAAQGVKREIDGVVRSQAEKILRDLDLVKREEFEAFKEMVRLTREENEALKARIAALEARQGGGSEPPTALA”, the “soluble on expression in E. coli” value is reported as “not soluble”.
In the case of “MEEFVNPCKIKVIGVGGGGSNAVNRMYEDGIEGVELYAINTDVQHLSTLKVPNKIQIGEKVTRGLGAGAKPEVGEEAALEDIDKIKEILRDTDMVFISAGLGGGTGTGAAPVIAKTAKEMGILTVAVATLPFRFEGPRKMEKALKGLEKLKESSDAYIVIHNDKIKELSNRTLTIKDAFKEVDSVLSKAVRGITSIVVTPAVINVDFADVRTTLEEGGLSIIGMGEGRGDEKADIAVEKAVTSPLLEGNTIEGARRLLVTIWTSEDIPYDIVDEVMERIHSKVHPEAEIIFGAVLEPQEQDFIRVAIVATDFPEEKFQVGEKEVKFKVIKKLHHHHHH”, the “soluble on expression in E. coli” value is reported as “soluble”.
For “MAPYKKSKQKQQKIQKERLRQQQKLDLAEGSVNIPDQDRSRSQDFSMNSTNSSALQDPLQQQPRPVETEKQQKARKERLRYQMKQLGTPCEPVTFSEEITKQLDELYESDDLPDMGLKSVWKRRLGIPMKKLNDWLKQKAFEKCHVSAQTGSCESSKSNSPSESTKSMGSAVLSSSTEPRTPEESHCAPEKSPESTENASPLSSSAEPETPEETSTSMVQIPENFKNKRLSQDLVDKLQELFQINEMPGREISEQWAQQLGISLKTLNNWMQKKRSQKLHPEQAKLKSQRWQETRRLRRAGLNQEKVEKALPYLEAAFKRCQFATQQTMAELKLNTSLQKSQIRLWFSRRRKAPDATHVPAIESDSDDLVELRALFNATEEDDDSDIEILRDTRQEQEEYRNRPEVRAMIERMFGVGGGGGSLDSGIPLQ”, the “soluble on expression in E. coli” value was “not soluble”.
With “MSVAGLKKQFHKATQKVSEKVGGAEGTKLDDDFKEMERKVDVTSRAVMEIMTKTIEYLQPNPASRAKLSMINTMSKIRGQEKGPGYPQAEALLAEAMLKFGRELGDDCNFGPALGEVGEAMRELSEVKDSLDIEVKQNFIDPLQNLHDKDLREIQHHLKKLEGRRLDFDYKKKRQGKIPDEELRQALEKFDESKEIAESSMFNLLEMDIEQVSQLSALVQAQLEYHKQAVQILQQVTVRLEERIRQASSQPRREYQPKPRMSLEFPTGDSTQPNGGLSHTGTPKPSGVQMDQPCCRALYDFEPENEGELGFKEGDIITLTNQIDENWYEGMLHGHSGFFPINYVEILVALPH” the “soluble on expression in E. coli” value was “soluble”.
With “MANGTVKIAEQSGVLPIAGDKIVLITARGSGRWIIPKGYIEKGMSPAESAAKEAWEEAGIVGSVRHEEIGTYSYRRPSGIFSVRIYPLEVESLLEQWDEMHVRQRRLVTPSEAIEMICLKELRSLITDYLIKRFDFLEHHHHHH” the “soluble on expression in E. coli” value was “not soluble”.
With “MKIKAIEPTPSPNTMKVILNEVLPSGARNNYTNENKEQAPMQVQEILKIEGIKGVYHVADFLAVERNAKYDWKVLLQQVRAVFGEEVLEESEEQQLAHFGEVKVFVQMFFTIPMQVKLTDGTTEERVGLPDRFKESIMKVQMSAPNVVKERKWVEQSTRYGNFEEIGKEVVEEIVAAYSEERVNETVKELLNQAGAVEVTIQKREPYKVTEEMMKDSDWKNRFAALEQMDPTEEDIPVLKMALDDEKVSIRRLATAYLGMVKGDEVLPLLYKALLDRSVSVRRTAGDCLSDVGDPAAMFVMIKSLKDPSKLVRWRAAMFLFELGDESAIPALKAAQDDPEFEVAMQARLALERIEGGEEAKGSVWKQMTESRKGE” the “soluble on expression in E. coli” value was “not soluble”.
For “MGSDKIHHHHHHMAGWRTVVVNTHSKLSYKNNHLIFKDSYQTEMIHLSEIDILIMETTDIVLSTMLIKRLVDENILVIFCDDKRLPTAMLMPYYARHDSSLQLSRQMSWIEDVKADVWTSIIAQKILNQSFYLGECSFFEKSQSIMNLYHDLEPFDPSNREGHAARIYFNTLFGNDFSREQDNPINAGLDYGYSLLLSMFAREVVKCGCMTQFGLKHANQFNQFNLASDIMEPFRPIVDRIIYENRQSDFVKMKRELFSMFSETYSYNGKEMYLSNIVSDYTKKVIKSLNSDGNGIPEFRI”, the “soluble on expression in E. coli” value was “not soluble”.
For “MESSIKVGISSCVLGERVRFDSGHKVSNFVTKELSNYFDFVSVCPEVGVGMPVPRPTIRLISNEERIALVETKNPDNDHTDNMLTYSANKVDELQNEQLCGYIVCAKSPTCGMERVKVYSKNNAAKEGVGLYTKTLMEKMPWLPVEEDGRLNDPVLKENFITRIYCLNDFYESMAGEPTRGKIIDFHSRYKLTLMAHHPESYRSLGRLVADVASYEIDEFYREYRLGLMTALSNRASRKNNTNVLMHLQGYFKRSLNKDEKEELATVIQDYRTGTLPLLAPLTLIKHYLNAYPDEYLQRQKFLEPHPQEMRLRYGL”, the “soluble on expression in E. coli” value was “not soluble”.
